# Measured values taken from publication PMC5136324 (Molecular cancer therapeutics, 2016).
# Ends that are not written are not given here. * marks the point of attachment. FITC = O=C1OC2(c3ccc(O)cc3Oc3cc(O)ccc32)c2ccc(NC(=S)*)cc21
# Target: AR ligand binding domain (residues 670-920), biotinylated, N-terminal (His)6-avidin tag (human, UniProt P10275 670-920, biotin (biotinylated form))
# Test: FRET or BRET
binder,measurement,value
{FITC}-MPQDLRSPARTPPSEEDSAEA [FITC-labelled SGTA peptide (FITC-MPQDLRSPARTPPSEEDSAEA)],binding result,binds
